According to patent US20140024038A1, “METHOD AND REAGENTS FOR TREATING HEPATIC FIBROSIS AND INFLAMMATION” (Agency for Science, Technology and Research, priority 2006, published 2014):

Experiments:
Format in all cases: cell-based, rat
[1] = test system: HSC-T6, activated HSCs and CFSC-3H; test: Cathepsin S activity measurement in HSCs after IFN-γ induction (BioVision kit, fluorogenic substrate); conditions: IFN-γ 10 ng/ml, 48 h, P<0.05 vs untreated, FIG. 9
Protocol: The cells were grown in cell culture medium containing 10% FBS in 75 cm^2 flasks. When the cells reached 50-60% confluence, IFN-γ was added at 10 ng/ml or omitted as untreated sample. The cells were harvested 48 h later and resuspended in CS cell lysis buffer. Cathepsin S activity was measured using a kit from BioVision (K1101-01) according to the provided manual. The final substrate concentration was 200 μM. Emitted fluorescence was measured using the Tecan Satire II (Tecan, Zurich, Switzerland) fluorescence plate reader at λex: 400 nm and λem: 505 nm. An AFC standard curve was used to calculate the released fluorophore in μM per μg protein per hour at 37° C.
To further investigate the induction of cathepsin S by IFN-γ, activity measurement was performed to directly detect cathepsin S in activated HSCs and both cell lines. FIG. 9 depicts the cathepsin S activity in activated HSCs and two different cell lines. The cells were grown in cell culture medium containing 10% FBS. When they reached 50-60% confluence, IFN-γ was added or omitted as control. The cells were harvested 48 h later and resuspended in CS cell lysis buffer. Cathepsin S activity was measured using a final substrate concentration of 200 μM. The specific activity is given in released fluorophore (AFC) in μM per μg protein per hour at 37° C. Data are presented as mean±SD*P<0.05.

[2] = test system: HSC-T6 and activated HSCs; test: Immunofluorescence staining of CD74, RT1-B and cathepsin S proteins after IFN-γ treatment
Protocol: The primary cells were grown in DMEM supplemented with 10% FBS on glass cover slips in 24-well culture plates prior to staining with antibodies against GFAP, SMAA, Desmin, RECA-1, ED-2, cathepsin S, RT1-B and CD74. At 60-70% confluence, the cells were washed once with sterile PBS and fixed with 4% paraformaldehyde (PFA) for 30 min at 4° C., followed by three washes with PBS. The cells were blocked and permeabilized in blocking solution (10% horse serum, 0.1% Triton X-100 in PBS) for 1 h at 37° C. The primary antibody was incubated in 10% blocking solution in PBS for 1 h at 37° C. followed by the secondary antibody under the same conditions. The primary antibody was omitted as a negative control. All images were taken with the LEICA DM IRB epifluorescence microscope using a 63× objective.
For induction experiments, IFN-γ was added to the cell culture at low confluence and the cells were cultivated further for different times depending on the targets to be stained (Cat S: 0, 4, 8, 24, 30 h; CD74: 0, 8, 24, 30 h; and RT1-B: 0, 24, 48 h). The presented images are representative for 3 experiments. Images were taken with a 40× objective. The fluorescence intensities from 3 to 7 different fields of vision of one representative experiment were quantified using the Image processing toolbox of the MATLAB platform (MathWorks, MA, USA). The following antibodies were used in the immunofluorescent staining. Anti-Cat S antibody (sc-6505) and anti-CD74 antibody (sc-5438) were from Santa Cruz Biotechnology (CA, USA); anti-RT1-B antibody (554926) was from BD Pharmingen (CA, USA); anti-GFAP antibody (Z 0334) was from Dako (CA, USA); and anti-SMAA-Cy3 (C 6198) and antidesmin antibody (D 8281) were from Sigma Chemicals (MO, USA). The anti-RECA-1 antibody (MCA970) and anti-ED-2 (CD163, MCA342R) were from Serotec (Oxford, UK). […]
For these experiments, we used the HSC-T6 and the activated HSCs. […] FIG. 5A and FIG. 5C show the immunofluorescence staining with anti-CD74 antibody after 30 h of IFN-γ induction for HSC-T6 and activated HSCs respectively (arrows depict the increase in fluorescence). […]

[3] = test system: HSC-T6, activated HSCs and CFSC-3H; test: Real-time RT-PCR of Cat S, Cat L, CD74, CIITA and RT1-Dα after IFN-γ treatment
Protocol: HSC-T6, CFSC-3H and activated HSCs were plated into 75 cm^2 culture flasks and grown overnight at conditions described above. The cells at a confluence of 60-70% were incubated with 10 ng/ml final concentration (equivalent to 100 U/ml) of recombinant rat IFN-γ for 2, 4, 8 and 24 h. The recombinant rat interferon-γ (IFN-γ) was purchased from BioVision (CA, USA). Total RNA was isolated using the NucleoSpin RNAII isolation kit (Macherey & Nagel, Germany) according to the manufacturer's protocol. The RNA concentration was measured with the ND-100 spectrophotometer (NanoDrop Technologies, DE, USA).
Real-time PCR was performed using the ABI 7500 Real Time PCR System (Applied Biosystems, CA, USA). All reagents were purchased from this company unless otherwise stated. Total RNA was reverse transcribed to cDNA using reagents from the cDNA archive kit (4322171). 10 μg of total RNA was used in a total reverse transcription reaction volume of 100 μl. The RT step was performed for 10 min at 25° C. and 2 h at 37° C. In real-time PCR, 20× TaqMan gene expression assay mix of Cat S (Rn01534427_m1), Cat L (Rn00565793_m1), CD74 (Rn01491430_g1), CIITA (Rn01424723_g1) and RT1-Dα (Rn02346209g1), as well as 20×18s rRNA (4319413E) were used. For each real-time target, the reaction comprises of 3 μl cDNA, 0.5 μl 20×18S rRNA, 0.5 μl 20× TaqMan gene expression assay, 1 μl nuclease-free water and 5 μl TaqMan Universal PCR master mix (4352042). Conditions for PCR were 2 min 50° C., 10 min 95° C. and 40 cycles of 15 s 95° C. and 1 min 60° C. The comparative threshold method was used to quantitate relative changes of target mRNA (User Bulletin #2, Applied Biosystems). Relative quantitation of target mRNA was expressed as fold change in gene expression to control (untreated). The data presented are representative for three independent experiments with the same trend. The graphs were made using OrignPro 7 (OriginLab, MA, USA).
FIG. 3A-3C depicts a quantitative analysis of the change in cathepsin S, CIITA, CD74 and RT1-Dα transcript level upon treatment with IFN-γ using real-time RT-PCR. After treatment with IFN-γ for 2, 4, 8 and 24 h, total RNA was extracted from the three different HSCs (activated HSC, HSC-T6 and CFSC-3H). The RNA was reverse transcribed and real-time RT-PCR was performed using TaqMan assays. The results were expressed as fold change in gene expression compared to the untreated samples using the relative quantification method for HSC-T6 (FIG. 3A), activated HSCs (FIG. 3B) and CFSC-3H (FIG. 3C).

[4] = IFN-γ 10 ng/ml, 2-24 h, HSC-T6, activated HSCs, CFSC-3H, vs untreated

B1: IFN-γ: recombinant rat interferon-γ purchased from BioVision, proinflammatory cytokine (protein, UniProt P01581 23-156, looked up)
Interferon gamma: QGTLIESLESLKNYFNSSSMDAMEGKSLLLDIWRNWQKDGNTKILESQIISFYLRLFEVLKDNQAISNNISVIESHLITNFFSNSKAKKDAFMSIAKFEVNNPQIQHKAVNELIRVIHQLSPESSLRKRKRSRC
cathepsin S specific activity [1]: significant increase | cathepsin S expression on the protein level ([2]; IFN-γ 8 h, quantified fluorescence intensities, FIG. 8): significant increase | CD74 protein expression ([2]; IFN-γ 30 h): significantly induced | RT1-B protein expression ([2]; IFN-γ 48 h): induced | CIITA type III transcript ([3]; HSCs, data not shown): inducible | increase in CIITA transcript level in activated HSCs relative to HSC-T6 and CFSC-3H ([3]; IFN-γ 10 ng/ml): > 20 times | CIITA transcript level [3, 4]: started to increase at an early time point | cathepsin S transcript level [3, 4]: upregulated | mRNA expression of RT1-Dα and CD74 ([3]; IFN-γ 10 ng/ml, at a later time, indirectly through CIITA): induced | cathepsin L mRNA level ([3]; IFN-γ 2, 4, 8 and 24 h, activated HSCs, HSC-T6, CFSC-3H, FIG. 4): no influence | cathepsin L mRNA expression in CFSC-3H ([3]; after 8 h IFN-γ, CFSC-3H): decreased
